Measured values: patent US20190015518A1, “DRUG DELIVERY COMPOSITIONS AND METHODS” (priority 2016, published 2019)

Key:
[1] = Rehydration time of lyophilized HA-Lys-Pt; assay type: physicochemical
Method: 33HA-Lys-Pt (MW of HA: 33 kDa) from batch 33_01015 was used to evaluate the impact of trehalose as an excipient and lyoprotectant. […] The solution was freeze-dried using the following program. Samples were frozen in a −80° C. freezer for 4 hours. The vials were transferred to a freeze dryer and kept at −40° C. for 1.5 hours. The condenser point was set at −70° C. The vacuum setpoint was 100 mTorr. The parameters for primary drying were 30 hours at −35° C. and 10 mTorr. The parameters for secondary drying were 5 hours at 2° C. and 10 mTorr, followed by another 5 hours at 8° C. and 10 mTorr. […] During rehydration, 500-μL of water was added to the vial and the sample was gently shaken. The small molecular weight platinum species such as mono-aquated and di-aquated platinum were separated from the reconstituted 33HA-Lys-Pt using a Centricon centrifugal filter unit (10,000 MWCO, 4000 rpm for 10 min at 4° C.) and analyzed by an HPLC assay. The mobile phase was sodium phosphate solution (10-mM, pH 3.0) at a flow rate of 0.25 mL/min on an Alltech® 250 mm×4.6 mm M/M RP8/cation column thermostated at 25° C.
The solution was freeze-dried using the following program. Samples were frozen in a −80° C. freezer for 4 hours. The vials were transferred to a freeze dryer and kept at −40° C. for 1.5 hours. The condenser point was set at −70° C. The vacuum setpoint was 100 mTorr. The parameters for primary drying were 30 hours at −35° C. and 10 mTorr. The parameters for secondary drying were 5 hours at 2° C. and 10 mTorr, followed by another 5 hours at 8° C. and 10 mTorr. […] During rehydration, 500-μL of water was added to the vial and the sample was gently shaken.
One milliliter of samples were used for all tests. The trehalose percent weights varied from 8-20% wt. The pHs included 4.5, 5, 6, and 7. The solution was freeze-dried using the aforementioned freeze-drying program. […] During rehydration, 1-mL of water was added to the vial and the sample was gently shaken. Diaquated platinum species were separated using the aforementioned Centricon units and analyzed using the aforementioned HPLC method.
Other sample freezing methods were also tested. For examples, samples were gradually frozen in ethanol bath at −80° C. and lyophilized. In addition, samples were flash frozen using liquid nitrogen and lyophilized.
Rehydration using one half of the original sample volume was tested.
Besides trehalose, PEG 200 (2 and 5% wt) was tested as a second excipient to aid the rehydrate process.

[2] = Microscopic urinalysis of a healthy dog given 1.5 mg/kg on day 1 and 2.0 mg/kg on day 70, sub-mucosa; assay type: in vivo
Method: Before each dose, the dog was examined by clinical chemistry, hematology, and urinalysis. Additional examinations of clinical chemistry and hematology were performed on days 7, 14, and 42 after the first dose. Additional tests of urinalysis were performed on days 7 and 14 after the first dose. The potential drug-induced toxicities were monitored for 56 days after the second dose. Specifically, clinical chemistry and urinalysis were performed on days 7, 14, 21, and 56, and hematology was performed on days 7, 14, and 56 after the second dose to evaluate the tolerability and toxicity of the formulation.
Microscopic urinalyses were performed at pre- and post-dose for both injections. The injections were given via the sub-mucosa in the mouth.

HA-cis-[Pt(NH3)2(N^α-Acetyl-L-Lysine)] [75HA-Lys-Pt]
Rehydration Time ([1]; 1.46 mg/mL, pH 6, trehalose 0% wt): >48 h | Rehydration Time ([1]; 1.46 mg/mL, pH 6, trehalose 5% wt): Ca. 12 hour | Rehydration Time ([1]; 1.46 mg/mL, pH 6, trehalose 10% wt): 7 h | Rehydration Time ([1]; 1.46 mg/mL, pH 6, trehalose 15% wt): 6 h | Rehydration Time ([1]; 1.46 mg/mL, pH 7, trehalose 5% wt): ca. 2.5 hour | Rehydration Time ([1]; 1.46 mg/mL, pH 7, trehalose 10% wt): 1 h | Rehydration Time ([1]; 1.46 mg/mL, pH 7, trehalose 15% wt): 1 h | Rehydration Time ([1]; 1.99 mg/mL, pH 4.5, trehalose 15% wt): 26 h | Rehydration Time ([1]; 1.99 mg/mL, pH 4.5, trehalose 20% wt): 26 h | Rehydration Time ([1]; 1.99 mg/mL, pH 5, trehalose 15% wt): 26 h | Rehydration Time ([1]; 1.99 mg/mL, pH 5, trehalose 20% wt): 26 h | Rehydration Time ([1]; 1.99 mg/mL, pH adjusted to 5 at rehydration, trehalose 10% wt): 6 to 20 h | Rehydration Time ([1]; 1.99 mg/mL, pH adjusted to 6 at rehydration, trehalose 10% wt): 6 to 20 h | Rehydration Time ([1]; 1.99 mg/mL, pH adjusted to 7 at rehydration, trehalose 10% wt): 6 to 20 h | Rehydration Time ([1]; 3 mg/mL, pH 5, trehalose 15% wt): >48 h | Rehydration Time ([1]; batch 75_0706, 1.06 mg/mL, pH 5, trehalose 7.5% wt, rehydration using half the original volume): 7 h | Rehydration Time ([1]; batch 75_0706, 1.06 mg/mL, pH 5, trehalose 10% wt, rehydration using half the original volume): 7 h | Rehydration Time ([1]; batch 75_0706, 2.13 mg/mL, pH 5, trehalose 15% wt, Ethanol bath): >48 h | Rehydration Time ([1]; batch 75_0706, 2.13 mg/mL, pH 5, trehalose 20% wt, Ethanol bath): >48 h | Rehydration Time ([1]; batch 75_0706, 2.13 mg/mL, pH 5, trehalose 20% wt, PEG200 2% wt): 48 h | Rehydration Time ([1]; batch 75_0706, 2.13 mg/mL, pH 5, trehalose 20% wt, PEG200 5% wt): 48 h | Rehydration Time ([1]; batch 75_0706, 3.00 mg/mL, pH 5, trehalose 15% wt): >48 h | Cast ([2]; 2 mg/kg, 7 days after): Rare triple | Trpl Ph Crystal ([2]; 2 mg/kg, 7 days after): Rare | urine Red Blood Cells ([2]; 2 mg/kg, 14 days after): 16-30 | Bac-U ([2]; 2 mg/kg, 21 days after): Few | Trpl Ph Crystal ([2]; 2 mg/kg, 21 days after): Rare triple | urine Red Blood Cells ([2]; 2 mg/kg, 21 days after): 1-5 | Bac-U ([2]; 2 mg/kg, 56 days after): Rare | Trpl Ph Crystal ([2]; 2 mg/kg, 56 days after): Few | urine Red Blood Cells ([2]; 2 mg/kg, 56 days after): TNTC | Bac-U ([2]; […], 7 days after): Moderate | Trpl Ph Crystal ([2]; […], 7 days after): Few | Bac-U ([2]; […], 14 days): Few
